T1: obscurin third immunoglobulin domain (O3) (human, UniProt Q5VST9 236-331)
T1 construct: obscurin, human, third Ig domain (O3); Insoluble when expressed alone; source: E. coli, co-expressed with myomesin My4LMy5 from a bicistronic vector, purified as a complex (SEC); not shown: GST, N-terminal, cleaved
T1 sequence (looked up): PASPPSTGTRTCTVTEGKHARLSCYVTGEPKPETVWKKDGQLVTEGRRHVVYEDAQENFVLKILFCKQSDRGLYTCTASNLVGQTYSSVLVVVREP

T2: obscurin-like-1 third immunoglobulin domain (OL3) (human, UniProt O75147 251-339)
T2 construct: obscurin-like-1, human, third Ig domain (OL3); the printed contact residues F265 to V332 lie in it; Insoluble when expressed alone; obtained only by co-expression with myomesin; Construct limits are in the Supplemental Experimental Procedures; source: E. coli, co-expressed with myomesin from a bicistronic vector, purified as a complex (SEC); not shown: GST, N-terminal, cleaved
T2 sequence: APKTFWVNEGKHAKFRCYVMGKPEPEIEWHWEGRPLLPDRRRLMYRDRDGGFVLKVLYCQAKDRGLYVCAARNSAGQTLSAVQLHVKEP

B1: myomesin region encompassing the fourth and fifth Fn-III domains (My4LMy5) (domain or fragment, human)
chain: PAAPLDVKCLEANKDYIIISWKQPAVDGGSPILGYFIDKCEVGTDSWSQCNDTPVKFARFPVTGLIEGRSYIFRVRAVNKMGIGFPSRVSEPVAALDPAEKARLKSRPSAPWTGQIIVTEEEPSEGIVPGPPTDLSVTEATRSYVVLSWKPPGQRGHEGIMYFVEKCEAGTENWQRVNTELPVKSPRFALFDLAEGKSYCFRVRCSNSAGVGEPSEATEVTVVGDKLDIP
notes: myomesin (MYOM1), human, Fn-III domains My4 and My5 with the linker L between them; My4 begins near residue 510 (My4LH is 510-618); My5 is in the crystallised protein but invisible in the electron density; Construct limits are in the Supplemental Experimental Procedures; also called My4L (name of the part visible in the crystal); source: E. coli, co-expressed with GST-OL3 or GST-O3 from a …

Key:
[1] = target: OL3:My4LMy5 complex (obscurin-like-1:myomesin heterodimer) (human) (UniProt O75147); experiment: SEC; Superdex S75 10/300; OL3:My4LMy5 complex injected at 3.0 and 8.2 mg/mL (0.082–0.225 mM); dimer of heterodimers to heterodimers
[2] = target: OL3:My4LMy5 complex (obscurin-like-1:myomesin heterodimer) (human) (UniProt O75147); experiment: crystal structure; OL3:My4LMy5 complex at 3.0 mg/mL; 20% PEG8000, 0.1 M Tris-HCl pH 8.5, 0.2 M MgCl2, matrix microseeding; 3.1 Å, space group C2
[3] = target: T1, obscurin third immunoglobulin domain …; experiment: SEC; GST-cleaved complexes co-expressed in E. coli from a bicistronic vector; SEC during purification; settings: both partners purified
[4] = target: T2, obscurin-like-1 third immunoglobulin …; experiment: as above; settings: both partners purified

| Molecule | dimer:monomer ratio at 8.2 mg/mL [1] [% dimer] | stoichiometry N [1] | stoichiometry N [2] | stoichiometry N [3] | stoichiometry N [4] |
| --- | --- | --- | --- | --- | --- |
| OL3:My4LMy5 complex (obscurin-like-1:myomesin heterodimer) (from UniProt O75147 251-339; P52179 510-739) | 30 | 2 | 2 | – | – |
| B1 | – | – | – | 1 | 1 |
